# T1: FcγRIIa H (human, UniProt P12318 34-217)
# T1 construct: extracellular domain; also called FcγRIIa type H; 2aH
# T1 sequence (looked up): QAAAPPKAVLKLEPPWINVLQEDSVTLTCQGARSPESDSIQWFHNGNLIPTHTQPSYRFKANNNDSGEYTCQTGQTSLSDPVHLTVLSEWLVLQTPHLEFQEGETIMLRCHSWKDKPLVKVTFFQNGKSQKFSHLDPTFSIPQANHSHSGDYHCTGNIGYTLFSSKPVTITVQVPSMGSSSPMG
# T2: FcγRIIb (human, UniProt P31994 43-217)
# T2 construct: extracellular domain; also called 2b
# T2 sequence (looked up): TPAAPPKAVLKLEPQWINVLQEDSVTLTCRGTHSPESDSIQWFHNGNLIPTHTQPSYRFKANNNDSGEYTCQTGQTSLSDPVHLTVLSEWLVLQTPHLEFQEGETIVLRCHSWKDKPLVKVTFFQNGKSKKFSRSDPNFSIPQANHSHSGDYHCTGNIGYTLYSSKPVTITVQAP
# Assays:
# FcγRIIa H [1] = biological target: T1, FcγRIIa H; assay: SPR; He/Con_2aH divided by He/Con_2b (FcγRIIb)
# Procedure: The heterodimerized antibodies He Abs in which one of the H chains was introduced with an alteration were assayed for their binding activities to each activating FcγR and inhibitory FcγR according to the method described in Example 4. […] The activating FcγRs in FIGS. 26, 27, 28, and 29 are FcγRIa, FcγRIIa (R), FcγRIIa (H), and FcγRIIIa, respectively.
# Analysis of interaction between objective antibody and the FcγR was carried out using Biacore T100 (GE Healthcare). HBS-EP+ (GE Healthcare) was used as the running buffer, and the measurement temperature was set to 25° C. Chips produced by immobilizing the antigen peptide by the amine coupling method to a Series S Sencor Chip CM5 (GE Healthcare), or alternatively, chips produced by allowing preliminarily biotinylated antigen peptides to interact with and immobilize onto a Series S Sensor Chip SA (certified) (GE Healthcare) were used. Antibodies of interest were captured onto an antigen peptide-immobilized chip, and allowed to interact to each FcγR diluted with running buffer. To regenerate and repeatedly use the chip, the antibodies captured on the chip were washed off by reacting 10 mM glycine-HCl, pH 1.5.
# FcγRIIa H [2] = biological target: T1, FcγRIIa H; assay: SPR (Biacore), relative binding vs GpH7-A5/GpH7-B3/GpL16-k0
# FcγRIIb = biological target: T2, FcγRIIb; assay: as above
Binder,He_2aH/2b (IIaH/IIb) (FcγRIIa H [1]) [ratio],He/Con_2aH (FcγRIIa H [2]),He/Con_2b (FcγRIIb)
"GpH7-A5/GpH7-B3 variant P271_01G/GpL16-k0 (antibody, human IgG1, kappa, heterodimerized IgG1, mutation in one H chain only; also called He Ab) heavy 1: not shown heavy 2: not shown light: DIVMTQSPLSLPVTPGEPASISCQASESLVHSNRNTYLHWYLQKPGQSPQLLIYKVSNRFSGVPDRFSGSGSGTDFTLKISRVEAEDVGVYYCSQNTHVPPTFGQGTKVEIERTVAAPSVFIFPPSDEQLKSGTASVVCLLNNFYPREAKVQWKVDNALQSGNSQESVTEQDSKDSTYSLSSTLTLSKADYEKHKVYACEVTHQGLSSPVTKSFNRGEC",0.55,107 % of control He Ab (=100),193 % of control He Ab (=100)
"GpH7-A5/GpH7-B3 variant P271_09D/GpL16-k0 (antibody, human IgG1, kappa, heterodimerized IgG1, mutation in one H chain only; also called He Ab) heavy 1: not shown heavy 2: not shown light: DIVMTQSPLSLPVTPGEPASISCQASESLVHSNRNTYLHWYLQKPGQSPQLLIYKVSNRFSGVPDRFSGSGSGTDFTLKISRVEAEDVGVYYCSQNTHVPPTFGQGTKVEIERTVAAPSVFIFPPSDEQLKSGTASVVCLLNNFYPREAKVQWKVDNALQSGNSQESVTEQDSKDSTYSLSSTLTLSKADYEKHKVYACEVTHQGLSSPVTKSFNRGEC",0.58,70.1 % of control He Ab (=100),120 % of control He Ab (=100)
"GpH7-A5/GpH7-B3 variant S267_09D/GpL16-k0 (antibody, human IgG1, kappa, heterodimerized IgG1, mutation in one H chain only; also called He Ab) heavy 1: not shown heavy 2: not shown light: DIVMTQSPLSLPVTPGEPASISCQASESLVHSNRNTYLHWYLQKPGQSPQLLIYKVSNRFSGVPDRFSGSGSGTDFTLKISRVEAEDVGVYYCSQNTHVPPTFGQGTKVEIERTVAAPSVFIFPPSDEQLKSGTASVVCLLNNFYPREAKVQWKVDNALQSGNSQESVTEQDSKDSTYSLSSTLTLSKADYEKHKVYACEVTHQGLSSPVTKSFNRGEC",0.34,105 % of control He Ab (=100),310 % of control He Ab (=100)
"GpH7-A5/GpH7-B3 variant S267_07I/GpL16-k0 (antibody, human IgG1, kappa, heterodimerized IgG1, mutation in one H chain only; also called He Ab) heavy 1: not shown heavy 2: not shown light: DIVMTQSPLSLPVTPGEPASISCQASESLVHSNRNTYLHWYLQKPGQSPQLLIYKVSNRFSGVPDRFSGSGSGTDFTLKISRVEAEDVGVYYCSQNTHVPPTFGQGTKVEIERTVAAPSVFIFPPSDEQLKSGTASVVCLLNNFYPREAKVQWKVDNALQSGNSQESVTEQDSKDSTYSLSSTLTLSKADYEKHKVYACEVTHQGLSSPVTKSFNRGEC",0.18,34.7 % of control He Ab (=100),192 % of control He Ab (=100)
"GpH7-A5/GpH7-B3 variant P271_14T/GpL16-k0 (antibody, human IgG1, kappa, heterodimerized IgG1, mutation in one H chain only; also called He Ab) heavy 1: not shown heavy 2: not shown light: DIVMTQSPLSLPVTPGEPASISCQASESLVHSNRNTYLHWYLQKPGQSPQLLIYKVSNRFSGVPDRFSGSGSGTDFTLKISRVEAEDVGVYYCSQNTHVPPTFGQGTKVEIERTVAAPSVFIFPPSDEQLKSGTASVVCLLNNFYPREAKVQWKVDNALQSGNSQESVTEQDSKDSTYSLSSTLTLSKADYEKHKVYACEVTHQGLSSPVTKSFNRGEC",0.64,60.9 % of control He Ab (=100),95.4 % of control He Ab (=100)
"GpH7-A5/GpH7-B3 variant S267_02A/GpL16-k0 (antibody, human IgG1, kappa, heterodimerized IgG1, mutation in one H chain only; also called He Ab) heavy 1: not shown heavy 2: not shown light: DIVMTQSPLSLPVTPGEPASISCQASESLVHSNRNTYLHWYLQKPGQSPQLLIYKVSNRFSGVPDRFSGSGSGTDFTLKISRVEAEDVGVYYCSQNTHVPPTFGQGTKVEIERTVAAPSVFIFPPSDEQLKSGTASVVCLLNNFYPREAKVQWKVDNALQSGNSQESVTEQDSKDSTYSLSSTLTLSKADYEKHKVYACEVTHQGLSSPVTKSFNRGEC",0.49,120 % of control He Ab (=100),243 % of control He Ab (=100)
"GpH7-A5/GpH7-B3 variant S267_05P/GpL16-k0 (antibody, human IgG1, kappa, heterodimerized IgG1, mutation in one H chain only; also called He Ab) heavy 1: not shown heavy 2: not shown light: DIVMTQSPLSLPVTPGEPASISCQASESLVHSNRNTYLHWYLQKPGQSPQLLIYKVSNRFSGVPDRFSGSGSGTDFTLKISRVEAEDVGVYYCSQNTHVPPTFGQGTKVEIERTVAAPSVFIFPPSDEQLKSGTASVVCLLNNFYPREAKVQWKVDNALQSGNSQESVTEQDSKDSTYSLSSTLTLSKADYEKHKVYACEVTHQGLSSPVTKSFNRGEC",0.8,25.1 % of control He Ab (=100),31.5 % of control He Ab (=100)
"GpH7-A5/GpH7-B3 variant P271_10E/GpL16-k0 (antibody, human IgG1, kappa, heterodimerized IgG1, mutation in one H chain only; also called He Ab) heavy 1: not shown heavy 2: not shown light: DIVMTQSPLSLPVTPGEPASISCQASESLVHSNRNTYLHWYLQKPGQSPQLLIYKVSNRFSGVPDRFSGSGSGTDFTLKISRVEAEDVGVYYCSQNTHVPPTFGQGTKVEIERTVAAPSVFIFPPSDEQLKSGTASVVCLLNNFYPREAKVQWKVDNALQSGNSQESVTEQDSKDSTYSLSSTLTLSKADYEKHKVYACEVTHQGLSSPVTKSFNRGEC",0.58,63.1 % of control He Ab (=100),109 % of control He Ab (=100)
"GpH7-A5/GpH7-B3 variant S267_03V/GpL16-k0 (antibody, human IgG1, kappa, heterodimerized IgG1, mutation in one H chain only; also called He Ab) heavy 1: not shown heavy 2: not shown light: DIVMTQSPLSLPVTPGEPASISCQASESLVHSNRNTYLHWYLQKPGQSPQLLIYKVSNRFSGVPDRFSGSGSGTDFTLKISRVEAEDVGVYYCSQNTHVPPTFGQGTKVEIERTVAAPSVFIFPPSDEQLKSGTASVVCLLNNFYPREAKVQWKVDNALQSGNSQESVTEQDSKDSTYSLSSTLTLSKADYEKHKVYACEVTHQGLSSPVTKSFNRGEC",0.26,50.8 % of control He Ab (=100),192 % of control He Ab (=100)
"GpH7-A5/GpH7-B3 variant S267_10E/GpL16-k0 (antibody, human IgG1, kappa, heterodimerized IgG1, mutation in one H chain only; also called He Ab) heavy 1: not shown heavy 2: not shown light: DIVMTQSPLSLPVTPGEPASISCQASESLVHSNRNTYLHWYLQKPGQSPQLLIYKVSNRFSGVPDRFSGSGSGTDFTLKISRVEAEDVGVYYCSQNTHVPPTFGQGTKVEIERTVAAPSVFIFPPSDEQLKSGTASVVCLLNNFYPREAKVQWKVDNALQSGNSQESVTEQDSKDSTYSLSSTLTLSKADYEKHKVYACEVTHQGLSSPVTKSFNRGEC",0.27,102 % of control He Ab (=100),379 % of control He Ab (=100)
"GpH7-A5/GpH7-B3 variant S267_06M/GpL16-k0 (antibody, human IgG1, kappa, heterodimerized IgG1, mutation in one H chain only; also called He Ab) heavy 1: not shown heavy 2: not shown light: DIVMTQSPLSLPVTPGEPASISCQASESLVHSNRNTYLHWYLQKPGQSPQLLIYKVSNRFSGVPDRFSGSGSGTDFTLKISRVEAEDVGVYYCSQNTHVPPTFGQGTKVEIERTVAAPSVFIFPPSDEQLKSGTASVVCLLNNFYPREAKVQWKVDNALQSGNSQESVTEQDSKDSTYSLSSTLTLSKADYEKHKVYACEVTHQGLSSPVTKSFNRGEC",0.16,34.3 % of control He Ab (=100),210 % of control He Ab (=100)
"GpH7-A5/GpH7-B3 variant S267_04F/GpL16-k0 (antibody, human IgG1, kappa, heterodimerized IgG1, mutation in one H chain only; also called He Ab) heavy 1: not shown heavy 2: not shown light: DIVMTQSPLSLPVTPGEPASISCQASESLVHSNRNTYLHWYLQKPGQSPQLLIYKVSNRFSGVPDRFSGSGSGTDFTLKISRVEAEDVGVYYCSQNTHVPPTFGQGTKVEIERTVAAPSVFIFPPSDEQLKSGTASVVCLLNNFYPREAKVQWKVDNALQSGNSQESVTEQDSKDSTYSLSSTLTLSKADYEKHKVYACEVTHQGLSSPVTKSFNRGEC",0.47,22.7 % of control He Ab (=100),48 % of control He Ab (=100)
"GpH7-A5/GpH7-B3 variant S267_15Y/GpL16-k0 (antibody, human IgG1, kappa, heterodimerized IgG1, mutation in one H chain only; also called He Ab) heavy 1: not shown heavy 2: not shown light: DIVMTQSPLSLPVTPGEPASISCQASESLVHSNRNTYLHWYLQKPGQSPQLLIYKVSNRFSGVPDRFSGSGSGTDFTLKISRVEAEDVGVYYCSQNTHVPPTFGQGTKVEIERTVAAPSVFIFPPSDEQLKSGTASVVCLLNNFYPREAKVQWKVDNALQSGNSQESVTEQDSKDSTYSLSSTLTLSKADYEKHKVYACEVTHQGLSSPVTKSFNRGEC",0.52,19.6 % of control He Ab (=100),37.9 % of control He Ab (=100)
"GpH7-A5/GpH7-B3 variant S267_14T/GpL16-k0 (antibody, human IgG1, kappa, heterodimerized IgG1, mutation in one H chain only; also called He Ab) heavy 1: not shown heavy 2: not shown light: DIVMTQSPLSLPVTPGEPASISCQASESLVHSNRNTYLHWYLQKPGQSPQLLIYKVSNRFSGVPDRFSGSGSGTDFTLKISRVEAEDVGVYYCSQNTHVPPTFGQGTKVEIERTVAAPSVFIFPPSDEQLKSGTASVVCLLNNFYPREAKVQWKVDNALQSGNSQESVTEQDSKDSTYSLSSTLTLSKADYEKHKVYACEVTHQGLSSPVTKSFNRGEC",0.61,63.3 % of control He Ab (=100),104 % of control He Ab (=100)
"GpH7-A5/GpH7-B3 variant S267_08L/GpL16-k0 (antibody, human IgG1, kappa, heterodimerized IgG1, mutation in one H chain only; also called He Ab) heavy 1: not shown heavy 2: not shown light: DIVMTQSPLSLPVTPGEPASISCQASESLVHSNRNTYLHWYLQKPGQSPQLLIYKVSNRFSGVPDRFSGSGSGTDFTLKISRVEAEDVGVYYCSQNTHVPPTFGQGTKVEIERTVAAPSVFIFPPSDEQLKSGTASVVCLLNNFYPREAKVQWKVDNALQSGNSQESVTEQDSKDSTYSLSSTLTLSKADYEKHKVYACEVTHQGLSSPVTKSFNRGEC",0.27,29 % of control He Ab (=100),109 % of control He Ab (=100)

# Source: patent publication US20180155451A1 (published 2018)
